Laboratory results published in patent US5451411A, “Methods and compositions for the oral delivery of therapeutic agents” (University of Washington, priority 1993, dated 1995).

What was measured:
[1] = Encapsulation efficiency of 125I-TGF-β1 in alginate beads; assay type: physicochemical
Description: Radioiodination of TGF-β1 : Radioiodination of TGF-β1 was completed in a 3.0-mL Eppendorf tube using a modified chloramine-T method (A. Tuong et al., "Site Specific Radioiodination of Recombinant Himdin," Annal. Biochem. 189:186-191 (1990)). To TGF-β1 (1 mg/1 mL) in 5 mMHCl, 10 μL of carrier-free Na^125 I (1.0 mCi) was added and mixed for 5 minutes. 100 μL of 0.1% chloramine-T was then added and, after vortexing for 60 seconds, the reaction was stopped by the addition of 100 μL of aqueous 0.1% mercaptoethanol followed by 100 μL of […]. ^125 I-TGF-β1 was diluted by adding 1.2 mL of citrate phosphate buffer (CPB), pH 2.6.
Free ^125 I was separated from ^125 I-TGF-β1 by gel filtration on a prepacked Sephadex G-25 column from Pharmacia (Uppsala, Sweden) preequilibrated with CPB. Twenty fractions of 0.5 mL each were collected, and aliquots were counted for activity using a γ-scintillation counter (Model 1185 GammaTrac; Tm Analytic; Elk Grove Village, IL). Separated ^125 I-TGF-β1 (S.A.=0.72 nCi/ng or 187 ng/μL was stored at 4° C. in 1.5 mL-Eppendofftubes. […]
Formation of Beads: 1.5 mL of the prebead mixture was drawn into a syringe equipped with a 30 G needle. […] If ^125 I-TGF-β1 was incorporated in the beads, calcium chloride was retained and counted for activity along with the 1.5 mL-Eppendoff tube to determine the % encapsulation of TGF-β1 in beads. […]

[2] = tested on: proliferating cell nuclear antigen (PCNA); experiment: Cell proliferation in intestinal crypts (PCNA immunohistochemistry, proliferating index); assay type: in vivo, Sprague-Dawley rats; details: TGF-β1 I.P. or P.O. in PBS
Description: Adult male Sprague-Dawley rats (250±30 g) were caged individually and handled according to the guidelines of American Association for the Accreditation of Laboratory Animal Care (AAALAC). For peroral administration of TGF-β1, the rats were anesthetized with intramuscularly injected ketamine-HCl (40 mg/kg) (Vetalar®, Aveco Inc., Fort Dodge, Iowa) and a catheter was inserted into the stomach perorally to exclude the failure of the formulation to reach stomach and intestine. Intraperitoneal injections were performed into the lower right quadrant of the abdomen. […]
Cell proliferation was quantified using immunohistochemical techniques for detecting proliferating cell nuclear antigen (PCNA), an endogenous marker of proliferating cells. […] The proliferating index (PI) was calculated as the number of epithelial cells in G1, S, G2 or M phase of the cell cycle per length (ram) of crypts counted. Four 0.25 mm areas (1 mm total) were scored for cell proliferation.

In the case of “TGF-β1: TGF-β1 (1 mg/mL in 5 mM HCl) obtained from Bristol-Myers Squibb (Seattle, WA)”, the “Encapsulation efficiency of TGF-β1 in alginate beads” value ([1]; prebead mixtures made in polypropylene tubes, most preparations) is reported as “greater than 97.5%”, the “Loss of TGF-β1” value ([1]; use of glass vials) is reported as “more than 98%” and the PCNA staining [2] is reported as “moderate staining”.
